# Measurements as given in article PMC3082007, “The microRNA cluster miR-106b~25 regulates adult neural stem/progenitor cell proliferation and neuronal differentiation”.
# B1: FHRE WT (miR-106b~25/Mcm7 intron 1) (dsDNA)
# DNA 1: GGCCCATGTGCTTCTTTGTTTACTAAGAGCGGAAGCAG
# DNA 2: CTGCTTCCGCTCTTAGTAAACAAAGAAGCACATGGGCC
# Molecular target: FoxO3-GST (human, UniProt O43524 1-673)
# Assay: EMSA; 5 nM probe; 50 ng/ul protein; Binding Buffer as printed: 200 mM Tris-HCl pH 7.5, 200 mM KCl, 200 mM MgCl2, 2% NP-40, 10% glycerol, 5 mM DTT, 500 ng/ul salmon sperm DNA (possibly a stock concentration); room temperature 20 min; 4% native PAGE at 4 C
# Details: protein: recombinant; tags: GST; label: 32P; blunt
# Sequence of FoxO3-GST (O43524 whole entry): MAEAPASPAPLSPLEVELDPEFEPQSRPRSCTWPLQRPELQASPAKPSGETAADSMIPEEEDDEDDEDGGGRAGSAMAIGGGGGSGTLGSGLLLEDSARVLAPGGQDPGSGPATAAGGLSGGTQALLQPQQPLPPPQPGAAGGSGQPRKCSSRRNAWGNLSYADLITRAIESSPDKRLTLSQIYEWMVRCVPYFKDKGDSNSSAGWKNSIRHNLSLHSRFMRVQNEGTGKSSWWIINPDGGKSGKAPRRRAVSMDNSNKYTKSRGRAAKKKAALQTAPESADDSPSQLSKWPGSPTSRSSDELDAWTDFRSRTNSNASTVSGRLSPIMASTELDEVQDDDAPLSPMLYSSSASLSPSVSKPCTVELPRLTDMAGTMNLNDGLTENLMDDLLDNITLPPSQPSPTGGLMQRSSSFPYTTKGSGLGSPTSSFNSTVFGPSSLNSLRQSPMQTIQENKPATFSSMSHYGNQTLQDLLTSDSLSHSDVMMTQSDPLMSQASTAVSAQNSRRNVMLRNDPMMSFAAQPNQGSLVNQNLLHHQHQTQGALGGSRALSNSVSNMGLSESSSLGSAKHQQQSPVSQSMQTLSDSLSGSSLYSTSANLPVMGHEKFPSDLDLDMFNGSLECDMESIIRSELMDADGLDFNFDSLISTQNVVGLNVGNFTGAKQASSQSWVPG
binder,measurement,value
B1,binding result,binds
